From US20150167106 (NEC Solution Innovators, Ltd., published 2015)

Key:
[1] = molecular target: BSA (bovine serum albumin) (Bos taurus, UniProt P02769 P02769:25-607); assay: SPR; specificity control; conditions: tags: Nippon Gene
[2] = molecular target: MIF (macrophage migration inhibitory factor) (UniProt P14174 P14174:2-115); assay: SPR; specificity control; conditions: tags: His tag; ATGen
[3] = molecular target: HA1Aichi (hemagglutinin HA1) (Influenza A virus A/Aichi/2/1968, UniProt P03437 SEQ:17-345); assay: SPR; conditions: tags: Sino Biological #11707-V08H1
[4] = molecular target: T1, HA1Aichi (hemagglutinin HA1) (Influenza A virus A/Aichi/2/1968, UniProt P03437 SEQ:17-345); assay: SPR; negative control; conditions: tags: Sino Biological #11707-V08H1
[5] = molecular target: T1, HA1Aichi (hemagglutinin HA1); assay: SPR; conditions: tags: Sino Biological #11707-V08H1; remark: listed apart in the source

BSA (bovine serum albumin), sequence (P02769 25-607, one chain of several): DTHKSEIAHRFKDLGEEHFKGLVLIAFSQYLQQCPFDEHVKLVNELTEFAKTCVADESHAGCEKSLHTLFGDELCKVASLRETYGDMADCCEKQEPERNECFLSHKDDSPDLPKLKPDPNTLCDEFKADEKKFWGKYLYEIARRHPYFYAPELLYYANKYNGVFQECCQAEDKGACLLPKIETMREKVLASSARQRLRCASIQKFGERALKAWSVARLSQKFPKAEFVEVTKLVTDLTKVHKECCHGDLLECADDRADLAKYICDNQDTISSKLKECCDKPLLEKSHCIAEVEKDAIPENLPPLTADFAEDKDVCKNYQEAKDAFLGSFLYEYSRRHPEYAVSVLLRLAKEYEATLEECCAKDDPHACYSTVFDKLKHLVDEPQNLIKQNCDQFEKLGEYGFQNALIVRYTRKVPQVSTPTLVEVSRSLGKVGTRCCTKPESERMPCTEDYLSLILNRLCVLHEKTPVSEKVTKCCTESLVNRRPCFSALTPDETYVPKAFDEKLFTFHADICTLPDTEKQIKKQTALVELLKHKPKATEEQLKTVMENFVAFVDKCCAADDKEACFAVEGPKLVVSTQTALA
MIF (macrophage migration inhibitory factor), sequence (P14174 2-115, one chain of several): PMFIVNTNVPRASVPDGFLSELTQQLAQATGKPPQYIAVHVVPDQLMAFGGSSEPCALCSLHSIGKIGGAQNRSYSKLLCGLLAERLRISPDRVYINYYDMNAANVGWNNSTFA

| Binder | binding result [1] | binding result [2] | binding result [3] | further results |
| --- | --- | --- | --- | --- |
| RHA0127 (ssDNA, 3' poly(dA)24 tail for SPR) DNA: CCTGCACCCAGTGTCCCTGGGTCGGCTAATTTGGCATTTGGGGTGGTTTGGGGGGGGGACGGAGAGGAGGACGG | no binding | no binding |  |  |
| TTGGGGTTATTTTGGGAGGGCGGGGGTT (ssDNA) [RHA0385_s28] |  |  | binds |  |
| GGGTTTGGGTTGGGTTGGG (ssDNA, 3' poly(dA)24 tail for SPR) [RHA0006_s19] | no binding | no binding |  |  |
| RHA0111 (ssDNA, 3' poly(dA)24 tail for SPR) DNA: CCTGCACCCAGTGTCCCGTGCTCCGGGGGTTGGGCGTGGTGGGTCTGTCGGGTTTCGGACGGAGAGGAGGACGG | no binding | no binding |  |  |
| RHA1635_s62 (ssDNA) DNA: GGGGCCCACCCTCTCGCTGGCGGCTCTGTTCTGTTCTCGTCTCCTTGATTTCTGTGGGCCCC |  |  | binds |  |
| RHA0002 (ssDNA, 3' poly(dA)24 tail for SPR) DNA: GGTTAGCCCGTCCCGAGATAACTCGGGGTGTTTGATGGTTTGGTCTGGTTGGCTTAACACACGGCGGCTGTAG | no binding | no binding |  |  |
| GTGTTTGATGGTTTGGTCTGGTTGGCTTAACAC (ssDNA, 3' poly(dA)24 tail for SPR) | no binding | no binding |  |  |
| GTGTTTGATGGTTTGGTCTGGTTGGCTTAACAC (ssDNA) |  |  | binds |  |
| RHA0471_s51 (ssDNA) DNA: TCCTCGTTGGGGGTGGTGGTGGGTTTCGGTTCATGGGTGGGACGGAGAGGA |  |  | binds |  |
| RHA1634_s60 (ssDNA) DNA: GGGCACCCTCTCGCTGTACGGTTGATGCACGTTTCTTTCTCTTTATATTGCTGGGTGCCC |  |  | binds |  |
| CGGCGTTTGGTTGGCGTGAACCATTTTTAAGTT (ssDNA, 3' poly(dA)24 tail for SPR; 3' biotin for ELAA) [Control] |  |  |  | binding result [4]: no binding |
| GGGTTTGGGTTGGGTTGGGTTTTTGGGTTTGGGTTGGGTTGGG (ssDNA, 3' poly(dA)24 tail for SPR; 3' biotin (detection) or 3' amino (capture) for ELAA) [RHA0006_s19_d5] |  |  |  | binding result [5]: binds |
| RHA0006 (ssDNA, 3' poly(dA)24 tail for SPR) DNA: GGTTAGCCCGTCCCGAGATAACTCGGTGTGTTGGGTTTGGGTTGGGTTGGGTCTTAACACACGGCGGCTGTAG | no binding | no binding |  |  |
